This is an account of results in patent US20090035258A1, “METHODS OF TREATING CANCER BY ADMINISTERING HUMAN IL-18 COMBINATIONS” (priority 2007, published 2009).

Read-outs that look alike come from different tables or passages of the source.

Data set [1] relates to EL-4 T-cell lymphoma. Briefly: IL-18 combination with doxorubicin in EL-4 T cell lymphoma, survival. It counts as in vivo, mouse. On the procedure: Studies were performed in female C57/BL/6 mice. As a general protocol, C57/BL mice were injected I.P. with 0.2 cc of stock EL-4 cells. EL-4 murine T-lymphoma cells were expanded in RPMI w/10% FCS. All animals were randomized to six or seven mice per study group with food and water ad libitum. EL-4 cells were harvested on day 0, counted and implanted I.P. with 5×10^5 EL-4 lymphoma cells. Animals were randomized to treatment groups of 6/7 animals on Day 3. Doxorubicin was administered IV on Days 3 &10, pos-implantation. mIL-18 (SEQ ID NO:2) was administered S.C. on Days 3-16. The animals were observed daily for toxicity and mortality.
All animals tolerated dosing schedule and levels well by gross observation. On day 16, all dosing was terminated, and median vehicle death occurred on day 17.5. All vehicle mice expired between days 16-18 post-implantation. Increase in lifespan was calculated by study group/vehicle group−1×100%. For mIL-18 (SEQ ID NO:2) combination therapy with doxorubicin in EL-4 T cell lymphoma, the data were analyzed with respect to median survival time and increase in lifespan.
The prolongation of life span in response to combinational therapy with mIL-18 (SEQ ID NO:2) and doxorubicin was assessed in the syngeneic tumor model of female C57BI/6 mice bearing EL-4 T-cell lymphoma. […] As described below, when vehicle animals expired (on day 16) all dosing was terminated. […]

Data set [2] relates to NK cells. Briefly: NK cytotoxicity assay in EL-4 T-cell lymphoma model. The note with it: 21 hours post-treatment (FIG. 12).
Data set [3] deals with murine colon carcinoma, Colo 26. The data set can be described thus: IL-18 and 5-FU combination in syngeneic murine colon cancer model Colo26. It counts as in vivo, mouse. As to conditions: 5-FU alone or mIL-18 alone. The protocol: This study aimed to evaluate the efficacy of mIL-18 (SEQ ID NO:2) combination therapy with 5-fluorouracil (5-FU), as compared to monotherapy with 5-FU, or mIL-18 (SEQ ID NO:2) alone. Our study was performed in a well established syngeneic subcutaneous model of murine colon carcinoma, Colo 26, in BALB/c mice. The dosing with mIL-18 (SEQ ID NO:2) was performed daily with 10 μg/mouse s.c. on days 10-30 after tumor inoculation. The dosing with 5-FU was performed i.p. twice a week in the ascending dose: 27, 45 and 74 μg/mouse.
The data comparing tumor volumes in different treatment groups were evaluated at a selected representative time-point, and were expressed as mean+/−SD (FIG. 21), and as median+/−range (FIG. 22). The data were first checked for normal distribution (Gaussian approximation), and standard deviation values were compared to make sure that there is an equal variance. […] Therefore, a non-parametric test (Kruskal-Wallis analysis and Dunn's comparison test) was used for the statistical evaluation. […] FIG. 24 (median+/−SD) and FIG. 25 (mean+/−SD) show the effect of IL-18 and 5-FU combination therapy in same Colo26 syngeneic colon tumor model. […]
Survival of mice bearing Colo26 in different treatment groups was plotted in a Kaplan-Meyer survival curve analysis, and evaluated by Logrank test, and is shown in FIG. 26. […]

For data set [4] the following is noted: cited from earlier work.
Data set [5] has as its system human Ramos B-cell lymphoma line. The data set can be described thus: IL-18 combination therapy with RITUXAN in murine human B-cell lymphoma model. The note with it: first experiment (FIG. 3); mIL-18 single agent 100 μg/dose. It counts as in vivo, mouse.
Experimental: The study was performed in outbred female homozygous SCID mice (ICR-Prkdc^scid) that lack both T and B cells.
Mice were injected with human Ramos B-cell lymphoma line that was originally derived from a patient with Burkitt's lymphoma (ATCC catalogue, CRL 1596). The tumor 1:10 homogenate was inoculated into 6-8 week old mice at the dose 0.5 ml per mouse. […] The therapy was initiated when the median tumor volume per group reached 80-150 mm^3 (at day 12 post tumor inoculation). In addition, those mice that grew a tumor with a volume outside of the set limits were excluded from the study.
The number of animals was increased to n=12, in order to have a better window to measure statistical significance. Tumor volume was measured using the viener calipers two to three times a week.
Data set [6] has as its system MOPC-315 plasmacytoma. The data set can be described thus: IL-18 monotherapy in advanced MOPC-315 plasmacytoma model. It counts as in vivo, mouse. The text has this:
Based upon a broad spectrum of immunostimulatory properties, IL-18 has been studied in a variety of preclinical tumor models. […] Further support for IL-18 mediated cellular immunity also comes from immunohistochemistry performed on established MOPC-315 tumors in control and IL-18 treated mice. […] In addition, it seems that an intact Fas/Fas ligand pathway is beneficial to anti-tumor response.

In data set [7] the test system is NK cells.

For the molecule `COc1cccc2c1C(=O)c1c(O)c3c(c(O)c1C2=O)C[C@@](O)(C(=O)CO)C[C@@H]3O[C@H]1C[C@H](N)[C@H](O)[C@H](C)O1` [doxorubicin, reference compound], the increase in lifespan entry in data set [1] (doxorubicin monotherapy 12 mg/kg IV days 3 & 10) was “minimal increase in lifespan”. In addition, in data set [2], the NK cytotoxicity result is reported as “impaired”.
As to `O=c1[nH]cc(F)c(=O)[nH]1` [5-FU, 5-fluorouracil, reference compound], the “therapeutic effect of monotherapy compared to control” value in data set [3] is “did not show a therapeutic effect better than a control”.
In the case of “human IL-18: recombinant mature form of human interleukin-18 (SEQ ID NO: 1), expressed in Escherichia coli”, the “toxicity at highest dose tested” value in data set [4] (2000 μg/kg administered weekly for up to 24 weeks) is reported as “no significant toxicity”. For the same molecule, the maximum tolerated dose result in data set [4] (up to 2000 μg/kg weekly for up to 24 weeks) is “not identified”.

B1: mIL-18: recombinant murine IL-18 (SEQ ID NO:2), used in the pre-clinical studies (protein)
chain: NFGRLHCTTAVIRNINDQVLFVDKRQPVFEDMTDIDQSASEPQTRLIIYMYKDSEVRGLAVTLSVKDSKMSTLSCKNKIISFEEMDPPENIDDIQSDLIFFQKRVPGHNKMEFESSLYEGHFLACQKEDDAFKLILKKKDENGDKSVMFTLTNLHQS
modifications: Murine
As for B1, in data set [5], the anti-tumor activity result is reported as “no activity”. Moreover, in data set [1] (IL-18 monotherapy 1, 5 and 25 ug/dose S.C. days 3-16), the increase in lifespan result is reported as “did not show any increase in lifespan”. For the same molecule, the “therapeutic effect of monotherapy compared to control” value in data set [3] is “did not show a therapeutic effect better than a control”. Also, the tumor response result in data set [6] (5 mg/Kg daily for approximately 30 days, advanced tumor) was “reproducible tumor regressions and cure”. Moreover, in data set [6] (SCIDs bearing advanced MOPC-315 tumors, similar schedule), the “tumor response in SCID mice” value was “failed to regress”. Further, the “rechallenge with parental tumor” value in data set [6] (after cure with IL-18) was “tumor rejection”. Moreover, the NK cytotoxicity entry in data set [7] was “robust NK cytotoxicity”.
